According to patent publication US20230109780A1 (XIYUAN ANJIAN MEDICINE SHANGHAI, published 2023):

T1: human BDNF (human, UniProt P23560 129-247)
T1 construct: Bought protein; also called Brain-Derived Neurotrophic Factor
T1 sequence (looked up): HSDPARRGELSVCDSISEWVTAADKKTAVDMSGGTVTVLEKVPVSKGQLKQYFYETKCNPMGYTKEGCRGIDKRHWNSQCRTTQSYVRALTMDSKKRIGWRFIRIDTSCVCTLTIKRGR

T2: human NT-3 (human, UniProt P20783 139-257)
T2 construct: Bought protein; also called Neurotrophic factor-3
T2 sequence (looked up): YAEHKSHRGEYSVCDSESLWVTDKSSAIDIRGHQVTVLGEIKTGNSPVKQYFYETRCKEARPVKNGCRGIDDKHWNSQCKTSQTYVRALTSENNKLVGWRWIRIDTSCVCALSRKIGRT

T3: human NT-4 (human, UniProt P34130 81-210)
T3 construct: Bought protein; also called Neurotrophic factor-4
T3 sequence (looked up): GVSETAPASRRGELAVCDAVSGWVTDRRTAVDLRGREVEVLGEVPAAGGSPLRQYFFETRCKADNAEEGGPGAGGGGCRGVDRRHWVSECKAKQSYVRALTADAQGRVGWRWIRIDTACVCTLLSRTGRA


Columns and labels:
[1] = target: T4, recombinant human NGF protein (human, UniProt P01138 122-241); assay: cell-based or functional assay
T4 sequence (P01138 122-241 limits assumed): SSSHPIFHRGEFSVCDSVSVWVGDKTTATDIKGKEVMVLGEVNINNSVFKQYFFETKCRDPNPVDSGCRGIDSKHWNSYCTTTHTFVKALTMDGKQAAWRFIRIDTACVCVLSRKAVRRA

[2] = target: T4, recombinant human NGF protein; assay: ELISA, human NGF coated
Method: The affinity and specificity of humanized antibody were investigated by using human NGF as an antigen (Beijing Yiqiao Shenzhou Technology Co., Ltd., 11050-HNAC). NGF was diluted with […] coating solution (PBS), and each well of 96-well microtiter plate was coated with 50 ng, after washing and blocking, and then added with serially diluted antibodies, and incubated at room temperature for 1 hour. After washing three times, HRP-conjugated donkey anti-human IgG antibody (Biolegend) was added and reacted at room temperature for 1 hour. After washing three times, tetramethylbenzidine (TMB, Biolegend) was added for color development. 1M HC1 was […] used to terminate the color development, and the absorbance values were read at 450 nm with a microplate reader.

human BDNF = target: T1, human BDNF; assay: ELISA, plate coated with human BDNF (50 ng per well), OD450
human NT-3 = target: T2, human NT-3; assay: ELISA, plate coated with human NT-3 (50 ng per well), OD450
Method: Each well of a 96-well microtiter plate was coated with 50 ng of human NGF (Beijing Yiqiao Shenzhou Technology Co., Ltd., 11050-HNAC), human BDNF (Beijing Yiqiao Shenzhou Technology Co., Ltd., 50240-MNAS), human NT-3 (Beijing Yiqiao Shenzhou Technology Co., Ltd., 10286-HNAE), or human NT-4 (Alomone, N-270). The bindings of the murine anti-NGF antibodies to human NGF and three homo-family proteins were detected according to the method described in Example 2.
The binding of the humanized anti-NGF antibody to human NGF and to three homo-family proteins was detected according to the ELISA method described in Example 6A.

human NT-4 = target: T3, human NT-4; assay: ELISA, plate coated with human NT-4 (50 ng per well), OD450

Binder	IC50, inhibition of NGF-induced proliferation of TF-1 cell [1]	EC50 [2]	binding result (human BDNF)	binding result (human NT-3)	binding result (human NT-4)
humanized anti-NGF antibody 138E12-02 (antibody, V domains shown, Humanized antibody expressed in CHO cells) VH: QVQLQESGPGLVKPSETLSLTCTVSGFSLTGYGVNWIRQPPGKGLEWLGMIWFDGSTDYNSALKSRLTISKDNSKSQVSLKLSSVTAADTAVYYCAREGYYYGTTYYFDYWGQGTTVTVSS VL: DIQMTQSPSSLSASVGDRVTITCRASQDISNYLNWYQQKPGKAPKLLIYYTSRLHSGVPSRFSGSGSGTDYTLTISSLQPEDFATYFCQQGNTLPRTFGGGTKVEIK	0.064 nM	0.042 nM	no binding (tested: 66.67 nM)	no binding (tested: 66.67 nM)	no binding (tested: 66.67 nM)
humanized anti-NGF antibody 138E12-01 (antibody, V domains shown, Humanized antibody expressed in CHO cells) VH: QVQLQESGPGLVKPSETLSLTCTVSGFSLTGYGVNWIRQPPGKGLEWIGMIWFDGSTDYNSALKSRVTISKDNSKSQVSLKLSSVTAADTAVYYCAREGYYYGTTYYFDYWGQGTTVTVSS VL: DIQMTQSPSSLSASVGDRVTITCRASQDISNYLNWYQQKPGKAPKLLIYYTSRLHSGVPSRFSGSGSGTDYTLTISSLQPEDFATYFCQQGNTLPRTFGGGTKVEIK	0.03 nM	0.0403 nM	no binding (tested: 66.67 nM)	no binding (tested: 66.67 nM)	no binding (tested: 66.67 nM)
humanized anti-NGF antibody 138E12-11 (antibody, V domains shown) VH: QVQLQESGPGLVKPSETLSLTCTVSGFSLTGYGVNWIRQPPGKGLEWLGMIWFEGSTDYQSALKSRLTISKDNSKSQVSLKLSSVTAADTAVYYCAREGYYYGTTYYFDYWGQGTTVTVSS VL: DIQMTQSPSSLSASVGDRVTITCRASQDISNYLNWYQQKPGKAPKLLIYYTSRLHSGVPSRFSGSGSGTDYTLTISSLQPEDFATYFCQQGNTLPRTFGGGTKVEIK	0.062 nM	0.0324 nM	no binding (tested: 66.67 nM)	no binding (tested: 66.67 nM)	no binding (tested: 66.67 nM)
humanized anti-NGF antibody 138E12-10 (antibody, V domains shown) VH: QVQLQESGPGLVKPSETLSLTCTVSGFSLTGYGVNWIRQPPGKGLEWIGMIWFEGSTDYQSALKSRVTISKDNSKSQVSLKLSSVTAADTAVYYCAREGYYYGTTYYFDYWGQGTTVTVSS VL: DIQMTQSPSSLSASVGDRVTITCRASQDISNYLNWYQQKPGKAPKLLIYYTSRLHSGVPSRFSGSGSGTDYTLTISSLQPEDFATYFCQQGNTLPRTFGGGTKVEIK	0.031 nM	0.0184 nM	no binding (tested: 66.67 nM)	no binding (tested: 66.67 nM)	no binding (tested: 66.67 nM)
humanized anti-NGF antibody 138E12-07 (antibody, V domains shown) VH: QVQLQESGPGLVKPSETLSLTCTVSGFSLTGYGVNWIRQPPGKGLEWIGMIWFEGSTDYQSALKSRVTISVDTSKNQFSLKLSSVTAADTAVYYCAREGYYYGTTYYFDYWGQGTTVTVSS VL: DIQMTQSPSSLSASVGDRVTITCRASQDISNYLNWYQQKPGKAPKLLIYYTSRLHSGVPSRFSGSGSGTDYTLTISSLQPEDFATYFCQQGNTLPRTFGGGTKVEIK	0.214 nM	0.034 nM	no binding (tested: 66.67 nM)	no binding (tested: 66.67 nM)	no binding (tested: 66.67 nM)
humanized anti-NGF antibody 138E12-06 (antibody, V domains shown) VH: QVQLQESGPGLVKPSETLSLTCTVSGFSLTGYGVNWIRQPPGKGLEWLGMIWFDGSTDYNTALKSRLTISKDNSKSQVSLKLSSVTAADTAVYYCAREGYYYGTTYYFDYWGQGTTVTVSS VL: DIQMTQSPSSLSASVGDRVTITCRASQDISNYLNWYQQKPGKAPKLLIYYTSRLHSGVPSRFSGSGSGTDYTLTISSLQPEDFATYFCQQGNTLPRTFGGGTKVEIK	0.125 nM	0.05 nM	no binding (tested: 66.67 nM)	no binding (tested: 66.67 nM)	no binding (tested: 66.67 nM)
humanized anti-NGF antibody 138E12-05 (antibody, V domains shown) VH: QVQLQESGPGLVKPSETLSLTCTVSGFSLTGYGVNWIRQPPGKGLEWLGMIWFDGSTDYQSALKSRLTISKDNSKSQVSLKLSSVTAADTAVYYCAREGYYYGTTYYFDYWGQGTTVTVSS VL: DIQMTQSPSSLSASVGDRVTITCRASQDISNYLNWYQQKPGKAPKLLIYYTSRLHSGVPSRFSGSGSGTDYTLTISSLQPEDFATYFCQQGNTLPRTFGGGTKVEIK	0.136 nM	0.0634 nM	no binding (tested: 66.67 nM)	no binding (tested: 66.67 nM)	no binding (tested: 66.67 nM)
humanized anti-NGF antibody 138E12-08 (antibody, V domains shown) VH: QVQLQESGPGLVKPSETLSLTCTVSGFSLTGYGVNWIRQPPGKGLEWIGMIWFEGSTDYNSALKSRVTISKDNSKSQVSLKLSSVTAADTAVYYCAREGYYYGTTYYFDYWGQGTTVTVSS VL: DIQMTQSPSSLSASVGDRVTITCRASQDISNYLNWYQQKPGKAPKLLIYYTSRLHSGVPSRFSGSGSGTDYTLTISSLQPEDFATYFCQQGNTLPRTFGGGTKVEIK	0.067 nM	0.0253 nM	no binding (tested: 66.67 nM)	no binding (tested: 66.67 nM)	no binding (tested: 66.67 nM)
humanized anti-NGF antibody 138E12-03 (antibody, V domains shown) VH: QVQLQESGPGLVKPSETLSLTCTVSGFSLTGYGVNWIRQPPGKGLEWLGMIWFEGSTDYNSALKSRLTISKDNSKSQVSLKLSSVTAADTAVYYCAREGYYYGTTYYFDYWGQGTTVTVSS VL: DIQMTQSPSSLSASVGDRVTITCRASQDISNYLNWYQQKPGKAPKLLIYYTSRLHSGVPSRFSGSGSGTDYTLTISSLQPEDFATYFCQQGNTLPRTFGGGTKVEIK	0.13 nM	0.0392 nM	no binding (tested: 66.67 nM)	no binding (tested: 66.67 nM)	no binding (tested: 66.67 nM)
humanized anti-NGF antibody 138E12-04 (antibody, V domains shown) VH: QVQLQESGPGLVKPSETLSLTCTVSGFSLTGYGVNWIRQPPGKGLEWLGMIWFDASTDYNSALKSRLTISKDNSKSQVSLKLSSVTAADTAVYYCAREGYYYGTTYYFDYWGQGTTVTVSS VL: DIQMTQSPSSLSASVGDRVTITCRASQDISNYLNWYQQKPGKAPKLLIYYTSRLHSGVPSRFSGSGSGTDYTLTISSLQPEDFATYFCQQGNTLPRTFGGGTKVEIK	0.112 nM	0.057 nM	no binding (tested: 66.67 nM)	no binding (tested: 66.67 nM)	no binding (tested: 66.67 nM)
humanized anti-NGF antibody 138E12-09 (antibody, V domains shown) VH: QVQLQESGPGLVKPSETLSLTCTVSGFSLTGYGVNWIRQPPGKGLEWIGMIWFDGSTDYQSALKSRVTISKDNSKSQVSLKLSSVTAADTAVYYCAREGYYYGTTYYFDYWGQGTTVTVSS VL: DIQMTQSPSSLSASVGDRVTITCRASQDISNYLNWYQQKPGKAPKLLIYYTSRLHSGVPSRFSGSGSGTDYTLTISSLQPEDFATYFCQQGNTLPRTFGGGTKVEIK	0.035 nM	0.027 nM	no binding (tested: 66.67 nM)	no binding (tested: 66.67 nM)	no binding (tested: 66.67 nM)
human-mouse chimeric antibody 138E12-Chi (antibody, V domains shown, the constant regions are not specified) VH: QVQLKESGPGLVAPSQSLSITCTVSGFSLTGYGVNWVRQPPGKGLEWLGMIWFDGSTDYNSALKSRLSISKDNSKSQVFLKMNSLQTDDTARYYCAREGYYYGTTYYFDYWGQGTTLTVSS VL: DIQMTQTTSSLSASLGDRVTISCRASQDISNYLNWYQQKPDGTVKLLIYYTSRLHSGVPSRFSGSGSGTDYSLTISNLEQEDIATYFCQQGNTLPRTFGGGTKLEIK	0.074 nM	0.0454 nM	no binding (tested: 66.67 nM)	no binding (tested: 66.67 nM)	no binding (tested: 66.67 nM)
